Measured values published in patent publication US8440629B2, “Cyclic receptor-associated protein (RAP) peptides” (Raptor Pharmaceuticals Inc., priority 2007, dated 2013).
Substitutions are numbered along the chain they refer to. Names may count otherwise.

T1: rhLRP1 cluster II (Homo sapiens, UniProt Q07954)
T1 construct: rhLRP1 cluster II (aa 786-1165, C-terminal Fc, 1 μg); purchased R&D Systems; host or cells: NS0
T1 sequence (Q07954 786-1165): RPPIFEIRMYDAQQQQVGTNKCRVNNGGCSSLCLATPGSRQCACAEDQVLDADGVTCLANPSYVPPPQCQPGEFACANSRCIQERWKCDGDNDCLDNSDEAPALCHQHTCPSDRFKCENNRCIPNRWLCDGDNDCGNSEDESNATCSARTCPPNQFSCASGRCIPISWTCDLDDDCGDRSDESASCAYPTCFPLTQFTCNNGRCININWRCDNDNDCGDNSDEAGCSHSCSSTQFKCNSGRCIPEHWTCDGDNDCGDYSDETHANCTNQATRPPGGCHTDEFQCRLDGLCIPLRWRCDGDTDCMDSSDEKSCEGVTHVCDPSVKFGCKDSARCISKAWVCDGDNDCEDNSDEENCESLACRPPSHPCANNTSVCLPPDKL

B1: MegaRAP1 d3 T213S: MegaRAP1 d3 revertant T213S (protein)
chain: LDRLRRVSHQGYSTEAKFEEPRVIDLWDLAQSANLTDKELEAFREELKYFKAKIEAHNHYQKQLEIAHEELRHAESVGDGERVSRSREKHALLEGRTKELGYTVKKHLQDLSGRISRAR
B2: MegaRAP1 d3 K217E: MegaRAP1 d3 revertant K217E (protein)
chain: B1 chain with S13T, K17E
B3: MegaRAP1 d3 A256K: MegaRAP1 d3 revertant A256K (protein)
chain: B1 chain with S13T, A56K
B4: MegaRAP1 d3 Y249H: MegaRAP1 d3 revertant Y249H (protein)
chain: B1 chain with S13T, Y49H
B5: MegaRAP1 d3 K251E: MegaRAP1 d3 revertant K251E (protein)
chain: B1 chain with S13T, K51E
B6: RAP d3 K270E: RAP d3 forward mutant K270E (protein)
chain: B1 chain with K17E, Y49H, K51E, A56K
B7: mRAP: linearized control of mRAPc, both cysteines substituted with serines (SEQ ID NO: 107) (peptide)
chain: SGFREELKHFEAKIEKHNHYQKQLEIAHEKLRHAESVGDGERVSRSREKHALLEGRTKELGYTVKKHLQDLSGGS
B8: mRAPcko: mRAPc with the mutations K256A and K270E (peptide)
peptide: GGSGGCGFREELKHFEAKIEAHNHYQKQLEIAHEELRHAESVGDGERVSRSREKHALLEGRTKELGYTVKKHLQDLSGGC
modifications: N-terminal biotin; intramolecular disulfide bond between C241 and C315 (otherwise identical to mRAPc)
notes: mRAPc with the mutations K256A and K270E
B9: mRAp-8c: cyclic RAP peptide, amino acids 246 to 312, E246C, L247G, L311G, S312C (SEQ ID NO: 100) (protein)
chain: CGKHFEAKIEKHNHYQKQLEIAHEKLRHAESVGDGERVSRSREKHALLEGRTKELGYTVKKHLQDGC
modifications: chains of the parent or of the whole protein
B10: Heptide: cyclic RAP peptide, amino acids 246 to 313, E246C, L247G, G280A, L311A, S312C (SEQ ID NO: 103) (protein)
chain: CGKHFEAKIEKHNHYQKQLEIAHEKLRHAESVGDAERVSRSREKHALLEGRTKELGYTVKKHLQDACG
modifications: chains of the parent or of the whole protein

molecular target: T2, LRP2 CR89 (Homo sapiens, UniProt P98164); experiment: Solid phase binding assay; conditions: solid-phase assay
T2 construct: two CR pairs from LRP2 (CR89, CR3435); made in house; host or cells: E. coli BL21(DE3) CodonPlus-RIPL, pET30(+)a
Procedure: (§1) All expression constructs were sequenced to verify insert sequences and the junctions with the expression vector. Each plasmid was then used to transform BL21(DE3) CodonPlus-RIPL™ cells (Stratagene). Expression of the CR proteins was induced in logarithmic growth-phase cells grown in LB supplemented with 34 μg/mL chloramphenicol, 12.5 μg/mL tetracycline and 15 μg/mL kanamycin by addition of 2 mM IPTG, followed by reduction in incubator temperature to 32° C. and incubation for 4 hours with agitation at […]. Cells were pelleted and resuspended, at 3.5% of the initial culture volume in 10 mM Tris-HCl pH 8, 100 mM NaH2PO4, 8M Urea. Resuspended cells were then frozen in liquid nitrogen, rapidly thawed to 37° C. and sonicated for 10 seconds at an amplitude setting of 60 using a Cole-Parmer CP-130 ultrasonic processor connected to a 3 mm probe. This procedure was repeated three times to effect complete lysis of the cells. Lysates were clarified by spinning twice at 10,000×g in a Sorvall RC-5 centrifuge for 20 minutes at 15° C. Ni-NTA columns (Qiagen Superflow™, 1.5 mL packed bed) were used to purify the CR proteins. Briefly, the resin was equilibrated with two column volumes of lysis buffer. The clarified lysate was then supplemented to 20 mM with imidazole and incubated with the equilibrated Ni-NTA resin overnight at 4° C. The flow-through was discarded. Columns were washed once with one column volume of lysis buffer and then three times with one column volume of TBS pH 8 supplemented with 20 mM imidazole. CR-loaded beads were then removed from the column and CR proteins eluted by incubating at room temperature for 30 minutes with one column volume of the same buffer containing 200 mM imidazole. This step was repeated once and the eluates pooled. Eluted CR protein solutions were then supplemented to 2 M urea, 10 mM CaCl2 and 5 mM DTT. Purified, denatured CR protein solutions were transferred to 3,500 MWCO Slide-A-Lyzer™ (Pierce) cassettes and sequentially dialyzed against a 200-fold excess of 50 mM Tris-HCl pH 8.5, 10 mM CaCl2, 1 mM reduced glutathione, 0.5 mM oxidized glutathione at room temperature overnight and then against TBS supplemented with 5 mM CaCl2 at 4° C. overnight. Protein concentrations were determined by Bradford assay and purity confirmed by SDS-PAGE with Coomassie Brilliant Blue staining.
(§2) Purified, refolded CR protein (1 μg) was bound to Nunc Maxisorp™ 96-well plates in TBS pH 8 supplemented with 5 mM CaCl2 (TBSC) overnight at 4° C. Wells were washed with TBSC and then blocked with TBSC containing 2% bovine serum albumin (BSA). RAP ligands were then incubated with the immobilized receptor at a range of concentrations for 2 hours in the above blocking buffer supplemented with 0.05% Tween-20 at room temperature. Control wells contained no added ligand. As an additional control, to determine whether the absence of calcium affected binding, 10 mM EGTA was included in the incubation medium for some samples. Wells were washed with TBSTC and bound ligands detected with polyclonal anti-RAP (BP41/42, 1:1,000, BioMarin). Excess primary antibody was removed and wells washed before incubation with the secondary antibody, HRP-conjugated goat anti rabbit IgG (Bio-Rad). After washing, TMB substrate solutions (Bio-Rad) were added to detect HRP. Color development was stopped with 1N HCl. Absorption at 450 nm was measured with a microplate spectrophotometer (Molecular Devices). Data were plotted and Kd values derived by non-linear regression with the assumption of single-site binding (GraphPad Prism).

T2 sequence (P98164 1022-1105 limits assumed): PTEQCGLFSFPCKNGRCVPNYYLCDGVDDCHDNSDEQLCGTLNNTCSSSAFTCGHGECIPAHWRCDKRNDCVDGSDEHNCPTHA

Molecule	binding to LRP2 CR89 (in words)
B1	slightly improved affinities
B2	slightly improved affinities
B3	failed to bind
B4	failed to bind
B5	failed to bind

molecular target: T3, LRP1 CR3-5 (Homo sapiens, UniProt Q07954); experiment: Solid phase binding assay; conditions: solid-phase assay
T3 construct: made in house; host or cells: E. coli BL21(DE3) CodonPlus-RIPL, pET30(+)a
Procedure: as §1, §2
From the large number of CR pairs with unique combinations of amino acids at A, C, A′ and C′ within the calcium-binding loop of each CR, CR pairs or triplets were selected to test their binding to RAP d3 (FIG. 2). An additional pair derived from the FDC-8D6 protein was tested, designated 8D6 CR12, having the sequence ([…]) (SEQ ID NO: 91). […]

Molecule	binding to LRP1 CR3-5 (in words)
B1	unable to detectably bind
B6	failed to measurably bind
B2	unable to detectably bind
B3	failed to bind
B4	failed to bind
B5	failed to bind

molecular target: T1, rhLRP1 cluster II; experiment: Solid phase binding assay of RAP peptides; conditions: not given
Procedure: Solid phase binding assays were carried out as follows. Recombinant murine VLDLR ectodomain (aa 1-798, C-terminal hexahistidine, 1 μg) or rhLRP1 cluster II (aa 786-1165, C-terminal Fc, 1 μg) were bound to Nunc Maxisorp™ 96-well plates in TBS pH 8 supplemented with 5 mM CaCl2 (TBSC) overnight at 4° C. Wells were washed with TBSC and then blocked with TBSC containing 2% BSA. Peptides were then incubated with the immobilized receptor at a range of concentrations for 2 hours in the above blocking buffer supplemented with 0.05% Tween-20 at room temperature. Identical binding reactions were done in the presence of 50 mM EDTA to provide a measure of non-specific binding. Control wells contained no added peptide. Additional controls established absence of cross-reactivity between antibodies and receptors. Wells were washed with TBSTC and bound peptides detected with streptavidin-HRP (Pierce) or polyclonal anti-RAP (1:1,000, Raptor Pharmaceutical). Binding of the anti-RAP polyclonal antibody to test peptides was qualitatively confirmed by Western blotting (data not shown). Excess streptavidin-HRP or primary antibody was removed and wells washed before incubation with the secondary antibody, when necessary, HRP-conjugated goat anti rabbit IgG (Bio-Rad). Color was developed using TMB reagents (BioRad). Absorption at 450 nm was measured with a microplate spectrophotometer (Molecular Devices). Absorption obtained in the presence of EDTA was subtracted from absorption obtained in the presence of calcium prior to analysis. Data were plotted and Kd values derived by non-linear regression with the assumption of single-site binding (GraphPad Prism).
The binding affinity of the peptides for LRP1 and VLDLR, another receptor in the LDLR family, was measured as follows. NS0-expressed and purified hrLRP1 or mVLDLR (R&D Systems) were use to coat wells in 96-well plates. Various dilutions of the test peptides were incubated with the immobilized receptors in the presence and absence of 50 mM EDTA in triplicate. Bound peptides were detected with streptavidin-HRP after extensive washing. Binding values measured in the presence of EDTA were subtracted from values measured in the absence of EDTA in order to determine calcium-dependent binding levels. Corrected values were plotted and fitted by non-linear regression with the assumption of a single-binding site using GraphPad Prism.

Molecule	affinity (in words)
B7	no measurable affinity
B8	no measurable affinity

same assay, conditions: calcium-dependent binding, EDTA-subtracted; read-out: Kd / binding affinity

Molecule	Kd [nM]
B9	4 to 6
B10	~3.5
